Non-standard residues stand in square brackets, D forms with d. No end group written: not given here. NMeI = CC[C@H](C)[C@H](NC)C(=O)O; Nle = CCCC[C@H](N)C(=O)O; lip = not defined here; Aib = CC(C)(N)C(=O)O
T1: human corticotropin-releasing hormone receptor 1 (human, UniProt P34998 24-415)
T1 sequence (looked up): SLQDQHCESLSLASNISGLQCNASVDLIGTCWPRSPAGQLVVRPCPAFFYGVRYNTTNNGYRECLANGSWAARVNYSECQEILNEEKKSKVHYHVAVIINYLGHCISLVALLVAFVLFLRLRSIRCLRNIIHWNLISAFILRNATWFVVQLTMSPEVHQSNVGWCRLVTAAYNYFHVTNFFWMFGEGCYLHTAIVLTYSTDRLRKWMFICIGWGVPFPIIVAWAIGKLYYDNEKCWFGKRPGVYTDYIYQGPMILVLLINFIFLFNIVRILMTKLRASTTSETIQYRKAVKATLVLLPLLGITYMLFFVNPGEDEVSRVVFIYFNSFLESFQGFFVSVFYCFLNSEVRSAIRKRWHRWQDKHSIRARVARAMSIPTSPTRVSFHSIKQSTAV

B1: SEQ ID NO: 5 (peptide)
peptide: [NMeI]VLSLDVPIGLLQILLEQARARAAREQAKTNAEILAEV-NH2
modifications: not fully specified (residue 29); also: lipid and spacer on Lys29 not given here
B2: SEQ ID NO: 236 (peptide)
peptide: IVLSLDVPIGLLQILLEQARARAAREQAK[Aib]NAEI[Nle]AEI-NH2
modifications: not fully specified (residue 29); also: lipid and spacer on Lys29 not given here
B3: SEQ ID NO: 237 (peptide)
peptide: IVLSLDVPIGLLQILLSQARARAAREQAK[Aib]NAEI[Nle]AEV-NH2
modifications: not fully specified (residue 29); also: lipid and spacer on Lys29 not given here
B4: SEQ ID NO: 234 (peptide)
peptide: IVLSLDVPIGLLQILLSQARARAAREQAKTN[Aib]EI[Nle]AEV-NH2
modifications: not fully specified (residue 29); also: lipid and spacer on Lys29 not given here
B5: SEQ ID NO: 239 (peptide)
peptide: IVLSLDVPIGLLQILLSQARARAAREQAKENAEI[Nle]AEV-NH2
modifications: not fully specified (residue 29); also: lipid and spacer on Lys29 not given here
B6: SEQ ID NO: 69 (peptide)
peptide: IVLSLDVPIGLLQILLEQARARAAREQAKTNAEI[Nle]AEI-NH2
modifications: not fully specified (residue 29); also: lipid and spacer on Lys29 not given here
B7: SEQ ID NO: 45 (peptide)
peptide: IVLSLDVPIGLLQILLEQARARAAREQAKTNAEI[Nle]AEV-NH2
modifications: not fully specified (residue 29); also: lipid and spacer on Lys29 not given here

These binders were tested against T1, human corticotropin-releasing hormone … (assay: cell-based or functional assay).
In the case of [NMeI]VTSLDVPIGLLQILLEQEKQEKEKQQAK(lip)TNAEILAQV-NH2 (reading uncertain) [SEQ ID NO: 10 (prior art peptide)], the “hCRHR1 EC50 (nM); HTRF cAMP assay, CHO-K1 cells stably expressing hCRHR1” value (“hCRHR1 EC50 (nM); HTRF cAMP assay” for short) is reported as 68 nM.
IVLSLDVPIGLLQILLEQARARAAREQATK(lip)NAEILAEV-NH2 (not fully specified; reading uncertain) [SEQ ID NO: 4] was tested, and the “hCRHR1 EC50 (nM); HTRF cAMP assay” value was greater than 5000 nM.
For K(lip)IVLSLDVPIGLLQILLEQARARAAREQATTNAEILAEV-NH2 (not fully specified; reading uncertain) [SEQ ID NO: 11 (prior art peptide)], the “hCRHR1 EC50 (nM); HTRF cAMP assay” value was 670 nM.
Ac-IVLSLDVPIGLLQILLEQARARAAREQAK(lip)TNAEILAEV-NH2 (not fully specified; reading uncertain) [SEQ ID NO: 8] was tested, and the “hCRHR1 EC50 (nM); HTRF cAMP assay” value was 560 nM.
With IVLSLDVPIGLK(lip)QILLEQARARAAREQATTNAEILAEV-NH2 (not fully specified; reading uncertain) [SEQ ID NO: 261] the “hCRHR1 EC50 (nM); HTRF cAMP assay” value was greater than 5000 nM.
For lip-IVLSLDVPIGLLQILLEQARARAAREQATTNAEILAEV-NH2 (not fully specified; reading uncertain) [SEQ ID NO: 260], the “hCRHR1 EC50 (nM); HTRF cAMP assay” value was 110 nM.
In the case of B1, the “hCRHR1 EC50 (nM); HTRF cAMP assay” value is reported as greater than 5000 nM.
In the case of [NMeI]VLSLDVPIGLLQILLEQEKQEKEKQQAK(lip)TNAQILAQV-NH2 (not fully specified; reading uncertain) [SEQ ID NO: 9 (prior art peptide)], the “hCRHR1 EC50 (nM); HTRF cAMP assay” value is reported as 510 nM.
With PVLSLDVPIGLLQILLEQARARAAREQAK(lip)TNAEILAEV-NH2 (not fully specified; reading uncertain) [SEQ ID NO: 7] the “hCRHR1 EC50 (nM); HTRF cAMP assay” value was greater than 5000 nM.
For IVLSLDVPIGLLQILLEQARARAAREQAK(lip)TNARILARV-NH2 (not fully specified; reading uncertain) [SEQ ID NO: 2 (lipidated version of native UCN2)], the “hCRHR1 EC50 (nM); HTRF cAMP assay” value was greater than 5000 nM.

Target: T1, human corticotropin-releasing hormone …
Experiment: cell-based or functional assay
Remark: another data set of the same source
[NMeI]VLSLDVPIGLLQILLEQARARAAREQAK(lip)ENAEILAEV-NH2 (reading uncertain) [SEQ ID NO: 18] was tested, and the “hCRHR1 EC50 (nM); HTRF cAMP assay” value was greater than 5000 nM.
In the case of IVLSLDVPIGLLQILLEQARARAAREQAK(lip)TN[Aib]EILAEV-NH2 (reading uncertain) [SEQ ID NO: 15], the “hCRHR1 EC50 (nM); HTRF cAMP assay” value is reported as greater than 5000 nM.
In the case of IVLSLDVPIGLLQILLEQARARAAREQAK(lip)TNVEILAEV-NH2 (not fully specified; reading uncertain) [SEQ ID NO: 14], the “hCRHR1 EC50 (nM); HTRF cAMP assay” value is reported as greater than 5000 nM.
For IVLSLDVPIGLLQILLEQARARAAREQAK(lip)ENAEILAEV-NH2 (not fully specified; reading uncertain) [SEQ ID NO: 17], the “hCRHR1 EC50 (nM); HTRF cAMP assay” value was greater than 5000 nM.
For IVLSLDVPIGLLQILLEQARARAAREQAK(lip)TNLEILAEV-NH2 (not fully specified; reading uncertain) [SEQ ID NO: 12], the “hCRHR1 EC50 (nM); HTRF cAMP assay” value was greater than 5000 nM.
For IVLSLDVPIGLLQILLEQARARAAREQAK(lip)TNIEILAEV-NH2 (not fully specified; reading uncertain) [SEQ ID NO: 13], the “hCRHR1 EC50 (nM); HTRF cAMP assay” value was greater than 5000 nM.

Target: T1, human corticotropin-releasing hormone …
Experiment: cell-based or functional assay
Remark: another data set of the same source
In the case of B2, the “hCRHR1 EC50 (nM); HTRF cAMP assay” value is reported as greater than 5000 nM.
For [NMeI]VLSLDVPIGLLQILLSQARARAAREQAK(lip)[Aib]NAEI[Nle]AEV-NH2 (reading uncertain) [SEQ ID NO: 132], the “hCRHR1 EC50 (nM); HTRF cAMP assay” value was greater than 5000 nM.
For IVLSLDVPIGLLQILLSQARARAAREQAK(lip)TNAEI[Nle]AEI-NH2 (not fully specified; reading uncertain) [SEQ ID NO: 89], the “hCRHR1 EC50 (nM); HTRF cAMP assay” value was greater than 5000 nM.
For B3, the “hCRHR1 EC50 (nM); HTRF cAMP assay” value was greater than 5000 nM.
In the case of IVLSLDVPIGLLQILLSQARARAAREQAK(lip)TNAEI[Nle]AEV-NH2 (not fully specified; reading uncertain) [SEQ ID NO: 83], the “hCRHR1 EC50 (nM); HTRF cAMP assay” value is reported as greater than 5000 nM.
For B4, the “hCRHR1 EC50 (nM); HTRF cAMP assay” value was greater than 5000 nM.
B5 was tested, and the “hCRHR1 EC50 (nM); HTRF cAMP assay” value was greater than 5000 nM.
B6 was tested, and the “hCRHR1 EC50 (nM); HTRF cAMP assay” value was greater than 5000 nM.
B7 was tested, and the “hCRHR1 EC50 (nM); HTRF cAMP assay” value was 56 nM.
With [NMeI]VLSLDVPIGLLQILLSQARARAAREQAK(lip)ENAEI[Nle]AEV-NH2 (reading uncertain) [SEQ ID NO: 101] the “hCRHR1 EC50 (nM); HTRF cAMP assay” value was greater than 5000 nM.

Source: patent EP4810052A2 (Gubra A/S, dated 2026)
